Data: patent publication US20210187106A1 (AstraZeneca / MedImmune, published 2021)

T1: recombinant human LIF receptor (hLIFR) (human, UniProt P42702 45-833, limits assumed)
T1 sequence (looked up): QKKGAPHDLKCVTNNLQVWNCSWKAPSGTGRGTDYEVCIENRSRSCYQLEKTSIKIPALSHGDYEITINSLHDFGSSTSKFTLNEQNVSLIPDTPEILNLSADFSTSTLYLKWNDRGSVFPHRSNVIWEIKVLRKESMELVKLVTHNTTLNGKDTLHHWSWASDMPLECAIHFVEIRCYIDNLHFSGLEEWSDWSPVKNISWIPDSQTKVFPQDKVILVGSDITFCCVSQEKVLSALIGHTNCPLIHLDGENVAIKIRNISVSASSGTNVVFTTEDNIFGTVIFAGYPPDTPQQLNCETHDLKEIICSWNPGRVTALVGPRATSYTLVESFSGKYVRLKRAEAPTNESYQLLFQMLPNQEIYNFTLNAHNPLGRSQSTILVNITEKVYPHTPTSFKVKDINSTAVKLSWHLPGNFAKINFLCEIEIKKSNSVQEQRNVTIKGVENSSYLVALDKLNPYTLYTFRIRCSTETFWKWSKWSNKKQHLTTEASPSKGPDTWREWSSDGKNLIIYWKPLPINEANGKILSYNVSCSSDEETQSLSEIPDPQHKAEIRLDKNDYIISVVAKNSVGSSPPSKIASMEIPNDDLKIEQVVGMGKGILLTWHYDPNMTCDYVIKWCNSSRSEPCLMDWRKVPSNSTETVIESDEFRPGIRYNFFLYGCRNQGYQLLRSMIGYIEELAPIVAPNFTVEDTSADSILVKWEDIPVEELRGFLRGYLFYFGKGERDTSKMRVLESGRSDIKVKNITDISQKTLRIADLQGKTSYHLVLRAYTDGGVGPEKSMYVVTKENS

T2: recombinant human gp130 (human, UniProt P40189 23-619, limits assumed)
T2 sequence (looked up): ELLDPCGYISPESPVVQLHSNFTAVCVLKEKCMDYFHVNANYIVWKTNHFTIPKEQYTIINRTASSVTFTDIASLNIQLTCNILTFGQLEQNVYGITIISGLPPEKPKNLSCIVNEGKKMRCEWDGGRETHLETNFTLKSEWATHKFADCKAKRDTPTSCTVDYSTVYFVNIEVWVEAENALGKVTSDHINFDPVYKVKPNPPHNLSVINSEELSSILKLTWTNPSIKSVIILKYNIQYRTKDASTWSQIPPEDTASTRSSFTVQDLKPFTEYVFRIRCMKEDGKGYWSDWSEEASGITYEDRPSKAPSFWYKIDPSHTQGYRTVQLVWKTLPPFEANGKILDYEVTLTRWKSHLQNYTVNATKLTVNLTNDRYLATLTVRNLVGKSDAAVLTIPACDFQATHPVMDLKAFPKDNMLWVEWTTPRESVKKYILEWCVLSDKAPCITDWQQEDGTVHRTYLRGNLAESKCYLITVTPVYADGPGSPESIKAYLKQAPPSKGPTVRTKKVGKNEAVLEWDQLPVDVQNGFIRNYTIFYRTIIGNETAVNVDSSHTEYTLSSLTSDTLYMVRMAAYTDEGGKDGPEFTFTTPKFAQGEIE

B1: human Leukemia Inhibitory Factor (LIF), expression source not stated (ligand)
chain: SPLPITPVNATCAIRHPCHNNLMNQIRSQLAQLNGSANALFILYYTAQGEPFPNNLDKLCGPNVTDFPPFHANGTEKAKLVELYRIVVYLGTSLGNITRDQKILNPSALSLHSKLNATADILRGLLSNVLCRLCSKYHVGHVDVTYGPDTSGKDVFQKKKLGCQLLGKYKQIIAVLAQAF
notes: also called hLIF; human LIF

What was measured:
[1] = biological target: B1; experiment: cell-based or functional assay
[2] = biological target: T1, recombinant human LIF receptor (hLIFR); experiment: Octet RED96 control experiment, h5D8 captured on AHC biosensors
Description: Subsequently, the biosensors were dipped in different concentrations of LIFR.

[3] = biological target: T3, human IL-6 (E. coli) (human, UniProt P05231 30-212, limits assumed); experiment: BLI (Octet), h5D8 amine-coupled to AR2G biosensors, cytokine as analyte; table legend: ND = no binding
T3 construct: also called huIL-6 (E. coli)
T3 sequence (P05231 30-212 limits assumed): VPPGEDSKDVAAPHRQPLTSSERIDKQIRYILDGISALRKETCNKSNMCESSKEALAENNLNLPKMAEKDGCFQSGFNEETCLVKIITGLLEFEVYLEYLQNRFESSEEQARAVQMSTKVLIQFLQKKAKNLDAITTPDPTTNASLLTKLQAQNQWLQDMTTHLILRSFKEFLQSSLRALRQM
Protocol: Kinetics experiments were then performed with the following Dip and Read steps at 30° C., 1000rpm: vi) 60 seconds Baseline in 1× kinetics buffer; vii) 180 seconds Association of appropriate serial dilutions of a cytokine in 1× kinetics buffer; viii) 300 seconds Dissociation in 1× kinetics buffer; ix) Three Regeneration/Neutralization cycles alternating between 10 mM glycine pH 2.0 and 1× kinetics buffer respectively (5 seconds in each for 3 cycles). Following regeneration, the biosensors were reused for subsequent binding analyses.

[4] = biological target: T2, recombinant human gp130; experiment: ELISA, LIF pre-incubated with B09 and added to a plate coated with recombinant human gp130; the antibody part of the complex detected with peroxidase anti-rat IgG

IC50 for biological inhibition (pSTAT3, MSD assay) under serum starved conditions in U-251 cells [1] [picomolar]	binding result [2]	binding result [3]	binding result [4]	Binder
490	no binding	no binding	–	h5D8 (humanized 5D8, H2L2 clone) (antibody, V domains shown, Humanized IgG tested as a bivalent antibody; Only VH and VL are tied to h5D8 by name; also called G (H2L2); H5D8-1 IgG) VH: QVQLQESGGGLVKPGGSLRLSCAASGFTFSHAWMHWVRQAPGKGLEWVGQIKAKSDDYATYYAESVKGRFTISRDDSKNTLYLQMNSLKTEDTAVYYCTCWEWDLDFWGQGTMVTVSS VL: DIVMTQTPLSSPVTLGQPASISCRSSQSLLDSDGHTYLNWLQQRPGQPPRLLIYSVSNLESGVPDRFSGSGAGTDFTLKISRVEAEDVGVYYCMQATHAPPYTFGQGTKLEIK
–	–	–	binds	B1
